In patent publication US20120316107A1 (CASE WESTERN RESERVE UNIVERSITY, published 2012):
Positions count from the first letter of the chain named. Where no end group is shown, it is not given here.

What was measured:
[1] = target: T1, Insulin-like Growth Factor receptor (UniProt P08069 31-1367, limits assumed); test: competitive displacement of 125I-IGF-1 from IGFR
T1 construct: Captured on antibody-coated microtiter plates; the construct is not described; also called IGFR; IGF Type I receptor

[2] = target: T1, Insulin-like Growth Factor receptor; test: competitive displacement of labelled ligand, receptor captured on anti-FLAG IgG plate, two-site sequential model
Description: DNA for transfection was prepared according to the method of Mynarcik et al. (J. Biol. Chem., 1997, 272, pp 18650-18655). The receptor cDNAs were expressed transiently in PEAK rapid cells using polyethyleneimine. Cells were harvested by lysis in 0.15M NaCl and 0.1M Tris (pH 8) containing 1% (v/v) Triton X-100 and protease inhibitor cocktail three days post-transfection. Lysates were stored at −80° C. until assay. Receptor-binding assays were performed as described by Mynarcik. Microtiter strip plates (Nunc Maxisorb) were incubated overnight at 4° C. with anti-FLAG IgG ([…] in PBS). Washing, blocking, receptor binding and competitive binding assays with labeled and unlabeled peptides were performed as described.

B1: single chain insulin (SCI) that is wild type at position B10 (His^A8, Asp^B28, Pro^B29) (ligand)
chain: FVNQHLCGSHLVEALYLVCGERGFFYTDPTGGGPRRGIVEQCCHSICSLYQLENYCN
notes: also called A8-His, B28-Asp, B29-Pro SCI; SCI not containing the Asp^B10 substitution
Kd [1]: 27.6 nM | Kd [2]: 27.6 nM

B2: 57 mer single-chain insulin analogue (His^A8, Asp^B10, Asp^B28, Pro^B29; GGGPRR linker) (ligand)
chain: B1 chain with H10D
modifications: ends and bridges not checked; cysteine pairing not given here
notes: also called 57mer single-chain analogue; 57-mer single-chain Analog
Kd [2]: 9.89 nM
